Measurements published in the nanobody polyreactivity screen of Harvey et al. (2022).

Test: yeast display, Sf9 membrane polyspecificity reagent, FACS + sequencing; frameworks hold sequencing errors
How it was run: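 In a synthetic yeast display library (Saccharomyces cerevisiae BJ5465), nanobody expression was induced with galactose for 36–48 hours. FACS gates were set low and high (top ~1%) using anti-HA fluorescence for expression and streptavidin fluorescence for binding of the Sf9 membrane reagent. Each polyreactivity label is drawn from the gate of origin.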

Sequence | polyreactivity (PSR sort gate)
QVQLVESGGGLVQAGGSLRLSCAASGLTLGRNAMGWYRQAPGKERELVAAISYGGGSTYYADSVKGRFTISRDNAKNTVYLQMNCLKPEDTAVYYCAADGWRTYGYYEYDYWGQGTQVTVSS | low polyreactivity
QVQLVESGGGLVQAGGSLRLSGAASGFIFIHYAMGWYRQAPGKERELVAAIRASGTSTYYADSVKGRFTISRDNAKNTVYLQMNSLKPEDTAVYYCAAQGYLRLRTHFNYWGQGTQVTLSS | low polyreactivity
QVQLVESGGGLVQAGGSLRLSCAASGSTFPRYAMGWYRQAPGKERELVASITSDGGSTYYADSVKGRFTISRDNAKNTVYLQMNSLKPEDTAVYYCNKVPYRGYRRYGYWGQGTQVTVSS | high polyreactivity
QVQLVESGGGLVQAGGSLRLSCAASGFTLSDYAMGGYRKAAGTERELVAGISSGGSTNYADSVKGRFTISRDNAKNTVYLQMNSLKPEDTAVYYCATRGTFQSHIRSGYWGQGTQVTVSS | high polyreactivity
QVQLVESGGGLVQAGGSLRLSCAASGGIFLPYAMGWYRQAPGKERELVAGITTSGGSTYYADSVKGRFTISRDNAKNTVYLQMNSLKPEDTAVYYCAKKSSLFKHVVRYDYWGQGTQVTVSS | low polyreactivity
QVQLVESGGGLVQAGGSLRLSCAASGRIFTRYAMGWYRQAPGKERELVAAITYSGGSTYYADSVKGRFTISRDNAKNTVYLQMNSLKPEDTAVYYCAAPYIGFVRHRKMGYWGQGTQVTVSS | low polyreactivity
QVQLVESGGGIVQAGGSLRLSCAASGFTFWRYARGWYRQAPGKERELVAGISSGGSTNYADSVKGRFTISRDNAKNTVYLQMNSLKPEDTAVYYCAARGNYFYGIYGYWGQGTQVTVSS | low polyreactivity
QVQLVESGGGLVQAGASLRLSCAASGFISYYYAMGWYRQAPGKERELVAAITKSGGSTYYADSVKGRFTISRDNAKNTVYLQMNSLKREDTAVYYCAAVRSTRNSTSRLYGYWGQGTQVTVSS | low polyreactivity
QVQLVESGGGIVQAGGSLRLSCAASGSTFRRYAMGWYRQAPGKERELVASISWSGGSTSYADSVKGRFTISRDNAKNTVYLQMNSLKPEDTAGYYCAAVRYYWGEYYARYAYEYWGQGTQVTVSS | high polyreactivity
QVQLVESGGGLVQAGGSLRLSCAASGRIFPYYAMGWYRQAPGKERELVATISGGGSTDYADSVKGRFTISRDNAKNTVYLQMNSLKPEDTAVYYFAKKLRGWHTIITDYDYWGQGTQVTVSS | low polyreactivity
QVQLVESGGGLVQAGGSLRLSCAASGITFISYAMGWYRQAPGKEMELVAAISSSGGRTYYADSVKGRFTISRDNAKNTVYLQMNSLKPEDTAVYYCAADGYPEYPRYGYWGQGTQVTVSS | high polyreactivity
QVQLVESGGGLVQAGGSLRLSCAASGFTFSVNAMGWYRQAPGKERELVAAISSRGGSTYYADSVKGRFTISRDNAKNTVYLQMNSLKPEDTAVYYCAKYPFYRSRHLGYWGQGTQVTVSS | high polyreactivity
QVQLVESGGGLVQAGGSLRLSCAASGSIFRRYAMGWNRQAPGKERELVAYISRSGGSTYYADSVKGRFTISRDNAKNTVYLQMNRLKPEDTAVYYCAAQRYRTGDSWGQGTQVTVSS | high polyreactivity
QVQLVESGGGLVQAGGSLRLSCAASGSIILHNAMGWYRQAPGKERELVAGITGSGGSTYYADSVKGRFTISRDNAMNTVYLQMNSLKPEDTAVYYCAAGSRSRYYRYVYYKYVTMDYWGQGTQVTVSS | high polyreactivity
QVQLVESGGGLVQAGGSLRLSCAASGFIFPRYAMGWYRQAPGKERELVAAISYSGGSTYYADSVKGRFTISRDNAKNTVYLQMNSLKPEDTAVYYCNAYFLSQYQRAYRDDYWGQGTQVTVST | high polyreactivity
QVQLVESGGGLVQAGGSLRLSCAASGRFFVPYFIGSYRQAPGTERELVASISDSDTSTYYADSVKGRFTISRDNAKNTVYLQMNSLKPEDTAVYYCNVDYWGQGTQVTLSS | low polyreactivity
QVQLVESGVGLVQARGSLRLSCAASGITFNYYAMGWYRQAPGKESELVATINRSGGTTYYADSVKGRFTISRDKAKNTDYLQMNSLKQEDTAVYDCNARYTSLGRYHSGYEYWGQGTQVTVSS | high polyreactivity
QVQLVESGGGLVQAGGSLRLSCAASGRIFTGNVMGWYRQAPGKERELVAAITYRGGSTYYADSVKGRFTISRDNAKNTVYLQMHSLKPEDTAVYYCNTRWDPYGYDYWGQGTQVTVSS | low polyreactivity
QVQLVESGGGLVQAGGSLRLSCAASGSIFWNNAMGWYIQAPGKEREWVAGISSAGSTNYADSVKGRFTISRDNAKNTVYLQMNSLKPEDTAVYYCAASYFRDYVWLRSNVRYYYWGQGTQVTVSS | low polyreactivity
QVQLVESGGGLVQAGGSLRLSCAASGFTFRVYAMGWYRQAPGKERELVAVISGTGGRTYYADSVKGRFTISRDIAKNTVYLQMNSLKPEDTAVYYCARRGRPPAIYDYWGQGTQVTVSS | high polyreactivity

Sequence | polyreactivity (PSR sort gate)
QVQLVESGGGLVQAGGSLRLSCAASGSTFDGYAMGWYRQAPGKERELVAAISASGGSTYYADSVKGRFTISRDNAKNTVYLQMNSLKPEDTAVYYCAAQVRYLCYRYDYWGQGSQVTVSS | high polyreactivity
QVQLVESGGGLVQAGGSLRLSCAASGIIFIPYAMGWYRQAPGKEREFVAAISSSGGSTYYADSVKGRFTISRDNAKNTVYLQMNSLKPEDTSVYYCAAQYVSRRYSRYNYWGQGTQVTVSS | high polyreactivity
QVQLQESGGGLVQAGGDLRLICAASGNIFRDYIMGWYRQAPGKEREFVAGIDRGANTNYADSVIGRFTISRDNAKNSVFLQMNSRKPEVTAVYYCAVHNAIGPDFIYWGQGTQVTVSS | low polyreactivity
QVHLVEAGGGLVQAGGSLRLSCAASACTFWPYARGLSSQAPGQDTELVAAMTSSGSTNYADSVKGRFTITRDNAKNTDYLQMNSLKPEDTAVNYCAADHRPSRFQSSVHLYYYWGQGTQVTVSS | low polyreactivity
QVQLVESGGGLVQAGGSHRLSCAASGRLFSWNAMGWYRQAPGTERELVAAITNGGGTYYADSVKGRFTISRDNAKNTVYLQMNSLKPEDTAVYYCNAYRRKLWYPTGLYWGQGTQVTVSS | high polyreactivity
QVQLVESGGGLVQAGGSLRLSCAASGSILKYYAMGWYRQAPGKERELLAAISWSGGRTYYADSVKGRFTISRDNAKNTVYLQMNSLKPEDTAVYYCAAENYGSGSWHGPEYDYWGQGTQVTVSS | low polyreactivity
QVQLVESVGGLVQAGGSLSLSCAASGSTLSDNAMGWYRQAPGKERELVAAIRRVGSTNYADSVKGRFTISRDNAKNTVYLQMNSLKPEDTAVYYCAVRHVWPWQGYDYWGQGTQVTVSS | low polyreactivity
QVQHVESGGGLVQAGGSLRLSCAASGIIFLFYAMGWYRQARGKERELVAAITGAGSTNYADSVKGRFTISRDNAKNTVYLQMNRLKPEDTAVYYCAARHYARYDYWGQGTQVTVSS | low polyreactivity
QVQLVQSGGGLVQAGGSLRLSCAASGLIFRYYTMGWYRQAPGKERELVAAISSGGSTRYADSVKGRFTISRDNAKNTVYLQMNSLKPEDTAVYYCAAKLYYYVQGRYNYWGQGTQVTVSS | high polyreactivity
QVQLVESGGGLVQAGGSLRLSCAASGNTFEYYVMGWYRQAPGKERELVAAITWSTGSTYYADSVKGRFTISRDNAKNTVYLQMNSLKPEDTAVYYCAALYYFIFGRPTRFDYWGQGTQVTVSS | low polyreactivity
QVQLVESGGGLVQAGGSLRISCAASGRIFDTYVMGWYRQAPGKERELVAAISGSGGSTYYADSVKGRFTISRDNAKNTVYLQMNSLKPEDTAVYYCAAARRYYAYRYDYWGQGTQVTVSS | high polyreactivity
QVQLVESGGGLVQAGGSLRLSCAASGFIFIINAMGWYRQAPGKEREFVAAITGSGGSTYYADSVKGRFTISRDNAKNTVYLQMNSLKPEDTAVYYCAKVGPYYSGKVYGRTYYSRYGYWGQGTQVTVSS | low polyreactivity
QFQLVESGGGLVQAGGSLRLSCAASGSIFYTYTMGWYRQAPGKDRVLVAAISFSDGDTYYADSVKGRFTISRDNAKNTVYLQMNSLKPEDTAVYYSNAYVYLPNYPYDYWGQGTQVTVSS | low polyreactivity
QVQLVETGGGLVQAGGSLRLSCAASGRTFAYYVMGWYRQAPGKERELVAAISSDGSTYYADSVKGRFTISRDNAKNTVNLQMNSLKPEDTAVYYCKVDVLLVHDYVFYSWMDYWGQGTQVTVSS | high polyreactivity
QVQLVESGGGLVQAGGSLRLSCAASGITFDYYAMGWYRQAPGKERELVAAISWGGGSTYYADSVKGRFTISRDNAKNTVYLQMNSLKPEDTAVYYCAADIVSSPSSYVPPGDYWGQGTQVTVSS | low polyreactivity
PVQLVESGGGLVQAGGSLRLSCAASGRIFKPYAMGWYRQAPGKERELVAAISGSGTRTYYADSVKGRFTISRANAKNTVYLQMNSLKPEDTAVYFCAAAYYSTYRNRMDYWGQGTQVTVSS | high polyreactivity
QVQLVESGGALVQAGGSLRLSCAASGRTFGRYAMGWYRQAPGKEREFVASISRRGGTTYYADSVKGRFTLSRDNAKNTVYLQMNSLKPEDTGVYYCAKEGSPTNPWYGSYEYDYWGQGTQVTVSS | low polyreactivity
QVQLVESGGGLVQEGGSLRLICAASGLTFFPYAMGWYRQAPGKDRELVAAITTSDGTTYYADSVKGRFTISRDNAKNTVYLQMNSLKPEDTAVYYCAAVYSPRSVWWYDYWGQGTQVTVSS | low polyreactivity
QVQLVESGGGLVQAGGSLRLSCAASGRIFYVYAMGWYRQAPGKERELVAAITQSGGRTYYADSVKGRFTISRDNAKNTVYLQMNSLKPEDTAVYYCAATWLGSRNLVHITLYYWGQGTQVTVSS | low polyreactivity
QVQLVESGGGLVQAGGSLRLSCAASGIWNMGWYRQAPGKERELVAAISWSGASTYYADSVKGRFTISRDNAKNTVYLQMNSLKPEDTAVYYCALGFWHTYGYWGQGTQVTVSS | high polyreactivity
